T1: His6-SAV577 (Streptomyces avermitilis ATCC31267?) (UniProt Q82QD3)
T1 sequence: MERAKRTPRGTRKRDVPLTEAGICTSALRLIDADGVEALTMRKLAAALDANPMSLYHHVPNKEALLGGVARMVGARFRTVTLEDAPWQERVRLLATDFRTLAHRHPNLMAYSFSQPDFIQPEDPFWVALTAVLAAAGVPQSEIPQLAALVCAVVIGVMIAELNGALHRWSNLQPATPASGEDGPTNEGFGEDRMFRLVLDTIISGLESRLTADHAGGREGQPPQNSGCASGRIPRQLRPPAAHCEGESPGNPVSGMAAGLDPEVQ

T2: His6-SAV577 (UniProt Q82QD3 1-265)
T2 sequence: T1 sequence

B1: probe 2 (dsDNA)
DNA 1: CCCAGGTCTGCCGATTGAGTTTCCATACGTCGTATGGTACTAC
DNA 2: GTAGTACCATACGACGTATGGAAACTCAATCGGCAGACCTGGG
B2: probe 6 (dsDNA)
DNA 1: AGTCGCCATACGCTGTACGGTACCAGCGCCCGCGGCACTGCGG
DNA 2: CCGCAGTGCCGCGGGCGCTGGTACCGTACAGCGTATGGCGACT

What follows are molecules tested against T1, His6-SAV577 (Streptomyces avermitilis ATCC31267?) (assay: EMSA). Conditions: EMSA: Roche DIG Gel Shift kit binding buffer, 1 ug poly[d(I-C)] per 20 ul, 25 C 30 min, 5% native PAGE 0.5x TBE; footprinting: 20 mM HEPES pH 7.6, 10 mM ….
“GGTATTCCATTCGGTGTTGCAGCACGCGACCCACTGCGCATCCCACTCGTGAATTGTGGACCGCCATCCGGGGCACGGATGTCTCCAGGAAGGAACTCCTTCACCCTCGCGAACACCACCTCAGAATCCCACGATCATCAGTTAATCATCAAAGTCAGCGACCTTGACACTACCCCGCCCACCAGGGCAAATTCATAACA (double strand) [probe 7]” was tested, and the binding was “no binding”. In the case of “GAAGGCATACAGCGTATGGAAACGGGGCGCTGCCGTACCGGCGCCCCGTCACACCGAATGGCGCCCTGCCCGCCTTTCCCCTTGGAGGAGCCAGCCAT (double strand) [probe 1]”, the binding is reported as “binds more weakly”. “GCTCTCGGAATTGTTCGTTCCCTCGCACTACACGTTCGAGATCGGAACGTGAAGACCAGCACGCTCCAGCCCGTTCGGATGCCGTACGTAGTCCGCCATGGCCAAGGGAATGAGCCCCACTCAGGCAGCGCCCTCGTACTCGTCCACGACCAGATGCTTGGACAGCAGCGCCTGAACCGCGTCCGGCGGAAAGTATCAGTGGACGAACG (double strand) [probe 577p]” was tested, and the binding was “no binding”. “GAAACTCAATCGGCAGACCTGGGGTCGAGAAACAGGAACGTTTCGGCCCATCAGGGACGGCGTCGCTCACGCAGCGGGGTCGCATCAGGATCAGGCGCTGCCGAACGCTCTCCCGGCTGGAGGAGGCGAGGGGAGACCGGTCGCCGCCAGCCGGCGGCTCGACCGGGCCACCGGTGGGTGCGCCCCGGGGAGGACACCCACGATCCGCGACGGCGGCCGCGGCTACATCCCGGTGAGCAGCCAATCCCCCTGCCCGCCAGTACGCATCGCGGAGGT (double strand) [probe 3]” was tested, and the binding was “no binding”. With “ATATGCCCTGCCGAGGAGACCCTGGCGAACCCGCCTTGCCCGCTCTCGCGGACTGATACCGGCCTGATCGAGCGCGGCATGGAGACGTACGGGCGCCGCCGCGAGGCGGCACACGCGCCTGCTTCTCCGGCGCTGCCGTCAGTCGCCGACGCGCATGGGTGCAGACCCGACCTCCGCGATGCGTACTGGCGGGCAGGGGGATTGGCTGCTCACCGGGATGTAGCCGCGGCCGCCGTCGCGGATCGTGGGTGTCCTCC (double strand) [probe 4]” the binding was “no binding”.

The molecules below were run against T2, His6-SAV577 (assay: EMSA; 0.3 nM probe; EMSA: Roche DIG Gel Shift kit binding buffer, 1 ug poly[d(I-C)] per 20 ul, 25 C 30 min, 5% native PAGE 0.5x TBE; footprinting: 20 mM HEPES pH 7.6, 10 mM (NH4)2SO4, 1 mM DTT, 0.2% Tween-20, 30 mM KCl, 25 C binding). Conditions: protein: recombinant; tags: N-terminal His6; chain copies: 2; label: DIG 3'-end; blunt.
B1: binds. B2: binds.

From publication PMC4051647, “Two Adjacent and Similar TetR Family Transcriptional Regulator Genes, SAV577 and SAV576, Co-Regulate Avermectin Production in Streptomyces avermitilis”
